The source of these data is article PMC7946940.

Experiment [1] concerns the target Rab1a(1–204)-Q70L-C26S-C126S (human) (UniProt P62820).
The target in experiment [2] is Rab5a(1–212)-Q79L-C19S-C63S (human) (UniProt P20339).
Rab5a(1–212)-Q79L-C19S-C63S (human), sequence (P20339 1-212 C19S/C63S/Q79L): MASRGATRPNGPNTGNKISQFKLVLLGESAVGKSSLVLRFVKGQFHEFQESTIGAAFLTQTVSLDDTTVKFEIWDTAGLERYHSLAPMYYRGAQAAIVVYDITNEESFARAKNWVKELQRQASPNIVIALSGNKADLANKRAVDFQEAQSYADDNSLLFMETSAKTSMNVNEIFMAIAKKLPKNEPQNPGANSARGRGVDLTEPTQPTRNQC

human VPS34 complex I (VPS34/VPS15/Beclin 1/ATG14L), sequence (Q8NEB9 whole entry): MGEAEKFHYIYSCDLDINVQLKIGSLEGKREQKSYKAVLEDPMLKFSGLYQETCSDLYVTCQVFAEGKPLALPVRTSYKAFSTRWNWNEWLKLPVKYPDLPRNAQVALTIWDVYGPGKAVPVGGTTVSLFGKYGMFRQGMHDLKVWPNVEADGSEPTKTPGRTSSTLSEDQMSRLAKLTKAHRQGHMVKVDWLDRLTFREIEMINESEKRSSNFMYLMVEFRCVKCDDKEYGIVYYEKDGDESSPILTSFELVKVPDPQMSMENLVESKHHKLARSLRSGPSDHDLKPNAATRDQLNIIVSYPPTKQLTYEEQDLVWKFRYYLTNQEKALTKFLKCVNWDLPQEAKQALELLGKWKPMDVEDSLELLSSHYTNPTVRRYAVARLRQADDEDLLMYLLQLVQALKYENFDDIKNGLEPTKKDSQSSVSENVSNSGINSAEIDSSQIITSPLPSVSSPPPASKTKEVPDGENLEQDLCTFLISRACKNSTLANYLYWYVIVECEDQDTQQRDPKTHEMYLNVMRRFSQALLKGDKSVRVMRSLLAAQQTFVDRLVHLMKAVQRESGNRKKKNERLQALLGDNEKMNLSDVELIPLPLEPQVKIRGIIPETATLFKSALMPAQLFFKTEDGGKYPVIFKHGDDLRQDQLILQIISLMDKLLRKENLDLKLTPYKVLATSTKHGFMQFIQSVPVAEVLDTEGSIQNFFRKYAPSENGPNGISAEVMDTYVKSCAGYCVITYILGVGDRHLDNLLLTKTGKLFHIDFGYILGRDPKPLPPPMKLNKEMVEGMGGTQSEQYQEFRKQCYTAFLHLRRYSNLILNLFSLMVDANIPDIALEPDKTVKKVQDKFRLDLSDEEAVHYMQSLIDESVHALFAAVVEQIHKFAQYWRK
human VPS34 complex I (VPS34/VPS15/Beclin 1/ATG14L), sequence (Q99570 whole entry): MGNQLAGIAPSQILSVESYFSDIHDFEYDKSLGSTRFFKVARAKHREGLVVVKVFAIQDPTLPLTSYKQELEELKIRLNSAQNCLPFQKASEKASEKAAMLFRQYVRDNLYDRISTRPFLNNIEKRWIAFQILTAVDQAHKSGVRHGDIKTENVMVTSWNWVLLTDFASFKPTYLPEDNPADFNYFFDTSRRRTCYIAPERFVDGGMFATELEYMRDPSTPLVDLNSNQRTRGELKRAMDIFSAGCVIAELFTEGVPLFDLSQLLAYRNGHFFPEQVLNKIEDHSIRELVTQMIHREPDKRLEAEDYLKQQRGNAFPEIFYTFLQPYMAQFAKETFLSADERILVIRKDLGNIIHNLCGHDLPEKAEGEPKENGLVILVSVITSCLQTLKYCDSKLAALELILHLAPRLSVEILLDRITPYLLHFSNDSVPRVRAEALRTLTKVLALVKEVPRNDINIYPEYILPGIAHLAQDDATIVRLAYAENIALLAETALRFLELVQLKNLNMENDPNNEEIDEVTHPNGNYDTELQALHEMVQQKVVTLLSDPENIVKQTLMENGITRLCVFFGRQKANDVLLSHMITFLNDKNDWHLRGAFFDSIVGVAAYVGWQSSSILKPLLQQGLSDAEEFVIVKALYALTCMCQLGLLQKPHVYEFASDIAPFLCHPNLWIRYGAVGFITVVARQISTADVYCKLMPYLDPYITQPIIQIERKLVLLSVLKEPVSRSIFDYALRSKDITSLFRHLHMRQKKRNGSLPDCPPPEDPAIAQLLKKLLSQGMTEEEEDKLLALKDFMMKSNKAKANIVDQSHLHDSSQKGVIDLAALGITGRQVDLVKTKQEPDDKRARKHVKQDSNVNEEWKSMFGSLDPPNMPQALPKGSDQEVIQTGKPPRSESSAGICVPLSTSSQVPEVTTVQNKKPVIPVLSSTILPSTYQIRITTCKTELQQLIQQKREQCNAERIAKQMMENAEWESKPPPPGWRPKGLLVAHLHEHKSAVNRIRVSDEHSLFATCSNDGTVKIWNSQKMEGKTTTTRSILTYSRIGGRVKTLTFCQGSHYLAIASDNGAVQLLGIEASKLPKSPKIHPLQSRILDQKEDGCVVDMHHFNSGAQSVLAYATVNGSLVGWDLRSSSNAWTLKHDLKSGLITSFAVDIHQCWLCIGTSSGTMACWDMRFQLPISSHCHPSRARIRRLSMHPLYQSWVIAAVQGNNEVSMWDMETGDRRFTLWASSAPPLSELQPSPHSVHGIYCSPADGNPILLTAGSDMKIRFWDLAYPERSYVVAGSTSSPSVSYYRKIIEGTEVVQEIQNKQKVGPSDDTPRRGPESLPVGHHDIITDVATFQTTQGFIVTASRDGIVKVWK
human VPS34 complex I (VPS34/VPS15/Beclin 1/ATG14L), sequence (Q14457 whole entry): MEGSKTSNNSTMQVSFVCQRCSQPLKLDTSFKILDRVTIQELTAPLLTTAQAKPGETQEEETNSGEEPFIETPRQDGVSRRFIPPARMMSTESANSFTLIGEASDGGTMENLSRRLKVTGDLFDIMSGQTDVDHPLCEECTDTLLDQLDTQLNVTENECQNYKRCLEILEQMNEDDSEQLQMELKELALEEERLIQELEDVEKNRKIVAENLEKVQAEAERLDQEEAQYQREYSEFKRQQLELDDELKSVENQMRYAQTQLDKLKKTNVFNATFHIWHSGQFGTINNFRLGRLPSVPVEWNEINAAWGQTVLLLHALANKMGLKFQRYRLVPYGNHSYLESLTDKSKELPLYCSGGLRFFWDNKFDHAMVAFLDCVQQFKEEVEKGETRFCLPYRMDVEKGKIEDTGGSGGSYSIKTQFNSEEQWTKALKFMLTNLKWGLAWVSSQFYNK
human VPS34 complex I (VPS34/VPS15/Beclin 1/ATG14L), sequence (Q6ZNE5 whole entry): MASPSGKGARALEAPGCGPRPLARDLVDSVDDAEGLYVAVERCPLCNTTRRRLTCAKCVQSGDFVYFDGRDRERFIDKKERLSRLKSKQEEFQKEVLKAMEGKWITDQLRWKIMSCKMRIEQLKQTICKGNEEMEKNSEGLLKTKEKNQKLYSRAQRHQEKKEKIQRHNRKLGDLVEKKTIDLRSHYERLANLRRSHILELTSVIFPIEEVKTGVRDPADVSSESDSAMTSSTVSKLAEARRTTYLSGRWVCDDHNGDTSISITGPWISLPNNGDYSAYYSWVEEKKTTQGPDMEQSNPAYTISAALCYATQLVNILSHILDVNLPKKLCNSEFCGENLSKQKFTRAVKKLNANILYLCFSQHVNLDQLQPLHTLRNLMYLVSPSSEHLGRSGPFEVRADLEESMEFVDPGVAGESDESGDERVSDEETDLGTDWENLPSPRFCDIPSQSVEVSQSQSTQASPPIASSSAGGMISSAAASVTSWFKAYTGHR
Rab1a(1–204)-Q70L-C26S-C126S (human), sequence (P62820 1-204 C26S/Q70L/C126S): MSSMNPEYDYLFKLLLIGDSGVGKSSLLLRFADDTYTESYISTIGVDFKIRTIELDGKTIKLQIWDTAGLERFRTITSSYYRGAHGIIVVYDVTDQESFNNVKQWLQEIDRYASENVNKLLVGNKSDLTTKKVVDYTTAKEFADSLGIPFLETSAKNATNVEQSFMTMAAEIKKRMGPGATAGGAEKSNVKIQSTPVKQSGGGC

In experiment [1], “human VPS34 complex I (VPS34/VPS15/Beclin 1/ATG14L) (from UniProt Q8NEB9 1-887; Q99570 1-1358; Q14457 1-450; Q6ZNE5 1-492)” registered a GUV-based lipid kinase activity of complex I, fold activation by Rab1a–GDP on the GUVs of 3 fold and a GUV-based lipid kinase activity of complex I, fold activation by Rab1a–GTP on the GUVs of 11 fold.
In experiment [2], “complex II REIE > AAAA (VPS34 199-REIE-202 to alanine/VPS15/Beclin 1/UVRAG) (from UniProt Q8NEB9 1-887; Q99570 1-1358; Q14457 1-450; Q9P2Y5 1-699)” displayed a GUV-based lipid kinase activity, activation of complex II REIE > AAAA by Rab5a–GTP against wild-type complex II of 4 fold.
